Experimental data reported in the supplement of paper PMC9170038.

System: MS2 coat protein
Experiment: apparent KD of MS2 coat protein; designed switch direction (-1 OFF switch, 1 ON switch): -1; higher = weaker reporter binding
Method in brief: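 For each design, the apparent KD is the median over clusters of curves fitted to normalised cluster fluorescence. Clusters held RNA switches with common flanks, transcribed on Illumina chips by stalled E. coli RNA polymerase. These were titrated with SNAP-549-labelled MS2 coat protein, doubling from 0.7 or 1.5 nM to 3 µM, without input, with 200 uM small-molecule ligand, or with an oligonucleotide input.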

[1] = Eterna round: R95, input ligand: FMN 200 uM
[2] = Eterna round: R95, input ligand: microRNA oligo, concentration not stated
[3] = Eterna round: R95, input ligand: none
[4] = input ligand: microRNA oligo, concentration not stated

| Sequence | apparent KD of MS2 coat protein [1] | apparent KD of MS2 coat protein [2] | apparent KD of MS2 coat protein [3] | apparent KD of MS2 coat protein (input ligand: FMN 200 uM) | apparent KD of MS2 coat protein [4] | apparent KD of MS2 coat protein (input ligand: none) |
| --- | --- | --- | --- | --- | --- | --- |
| GAUUAUGCGAGCUUUAGGGACAUGAGGAUCACCCAUGUUCGUCUUAUUAGUCUGAAUACGCUGACAUACCUAAAUCU [JMF 95] (puzzle: Sensor v3, turn-off variant 1) | 16.3 nM | 19.5 nM | 19.2 nM | – | – | – |
| GUCAGCUCGUCAGGAUAUAUAUAUACAUGAGGAUCACCCAUGUUAGAUCAGCUUCGGCAGUAUAUAUAGAAGGGACGAGCUGAC [ENG2/15-B1] (Eterna round: R96, puzzle: Exclusion NG 2) | – | – | – | 153 nM | 59 nM | 72.5 nM |
| GUCGUGCGGCUUUGCUGUACGAGUACAUGAGGAUCACCCAUGUAGGAUAUGGCACGCUUUGCGUGCCAGAAGGGCGUGCGUUGG [Excl-NG3-LRO10] (Eterna round: R96, puzzle: Exclusion NG 3) | – | – | – | 35.1 nM | 21.5 nM | 28.4 nM |
| GUUGCAAGCACUUACGUUGACAUGAGGAUCACCCAUGUAGCAUCUCCGCCAAUCUAAGCCGUUGUCUUAUAUACCUU [Eternabot (L2) Solution 3] (Eterna round: R97, puzzle: Sensor, turn-off variant 1) | – | – | – | 34.5 nM | – | 51.7 nM |
| GAUAGGGCAGGAUAUCGAGAUCCGCACAUGAGGAUCACCCAUGUUCGGUCGAAAGACCGACGAGAAGGGCCGUAUC [Omei Ex5 E6] (Eterna round: R97, puzzle: Exclusion 5) | – | – | – | 698 nM | – | 536 nM |
| ACAUGAUACUAGGAUAUCAGCAUACUUCAAUGUUGAGAAGGAGUAACAUGAGGAUCACCCAUGUAUCCAACAUG [Exclusion 6 - 4:b] (puzzle: Exclusion 6) | – | 43.5 nM | – | – | – | – |
| GCACGGAUGGUAGGAUAUCAUUGCGAUUAGCUAUGAGAAGGACCACAUGAGGAUCACCCAUGUCCUCUAAUUAGCCUUCCGUGC [Eli exng1 - 016] (Eterna round: R96, puzzle: Exclusion NG 1) | – | – | – | – | 156 nM | – |
| AGUACUAACACGAAAGUGUUAGUACAAUAAGCUUGUGAAACAUGAGGAUCACCCAUGUCCUCAUGAGCUCGUCUUAU [salish99_TOv2_r3_051] (puzzle: Sensor v3, turn-off variant 2) | 77.8 nM | 5.95 nM | 67.9 nM | – | – | – |
| AAAACACAUGAGGAUCACCCAUGUGAGGAUAUGUUGAUUUUGAUCAAAGUUAAGAUUAACAGAAGGCACAUAAA [JR_Exclusion1_Sub018] (puzzle: Exclusion 1) | 34.5 nM | 36.1 nM | 35.2 nM | – | – | – |
| UCUCGGUAAGGAUAUGCGCCGGGAUGAAGAUCCCGAAGCAUGCAGAAGGUACAUGAGGAUCACCCAUGUCUGUU [Eternabot (L1) Solution 76] (Eterna round: R97, puzzle: Exclusion 4) | – | – | – | 47.2 nM | – | 20.5 nM |
| ACUUAUUGAGGAUAUACAGAAAAUUACAUGAGGAUCACCCAUGUUCUUCAAUGUAUAUAUGUAGAAGGCAGAAGAU [Mat - Exclusion 5 - JL Mod - D16] (Eterna round: R97, puzzle: Exclusion 5) | – | – | – | 48.9 nM | – | 14.5 nM |
| CGGUAAAUAGGAUAUACAUGAGGAUCACCCAUGUUCCAUAGCACUCGGAGGGUUCCCAGUAGAAGGGUUGGCCU [EX3 C.17] (Eterna round: R97, puzzle: Exclusion 3) | – | – | – | 16 nM | – | 19.4 nM |
| AGUACUAUCACGAAAGUGAUAGUACAAAUAAGCUUUAGAACAUGAGGAUCACCCAUGUCCUCUUAAGCUCGUCUUAU [Mat - Sensor v2 -ver2- JL mod - D56] (Eterna round: R96, puzzle: Sensor v2, turn-off variant 2) | – | – | – | 14.8 nM | 143 nM | 17.1 nM |
| UUUUAGACAGGAUAUACAUUUUUUUAUUUAUUUAUAAUAUUACAUGAGGAUCACCCAUGUAGAAGGGUCAUUUU [My Design] (puzzle: Exclusion 2) | – | 37.1 nM | – | – | – | – |
| UCCUCACAUGAGGAUCACCCAUGUUAGGAUAUCUUAUAGAGCUUGAGACAGUUCUUUAAGAGAAGGAACUGGGC [Exclusion 1 (MOD2.2 of Edarti)] (Eterna round: R97, puzzle: Exclusion 1) | – | – | – | 120 nM | – | 115 nM |
| CCUAUGUUAGGAUAUCGGCAUCCCGGGCAGGUAGCCAGGACCGAGAAGGGACAUGAGGAUCACCCAUGUCAAAU [Eternabot (Original) Solution 4] (Eterna round: R97, puzzle: Exclusion 4) | – | – | – | 15.9 nM | – | 19.1 nM |
| AAUAACAGAGGAUAUACUAUUUUAUGUGUUUGUUAUUUUGAACAUGAGGAUCACCCAUGUAGAAGGCUGAUUGA [JMF 77] (puzzle: Exclusion 2) | – | 41.1 nM | – | – | – | – |

| Sequence | apparent KD of MS2 coat protein [1] | apparent KD of MS2 coat protein [2] | apparent KD of MS2 coat protein [3] | apparent KD of MS2 coat protein (input ligand: FMN 200 uM) | apparent KD of MS2 coat protein [4] | apparent KD of MS2 coat protein (input ligand: none) |
| --- | --- | --- | --- | --- | --- | --- |
| AGUAGUUGUUUCCGUUCUUACAUGAGGAUCACCCAUGUUUCUUGACGUGCACGCGAUGCUCGUCAGACUACCAGAUG [salish99_TOv1_r3_057] (puzzle: Sensor v3, turn-off variant 1) | 57.6 nM | 87.8 nM | 81.7 nM | – | – | – |
| AUACCACGAGGAUAUCGUCUAUUCCACAUGAGGAUCACCCAUGUUAUCCAUGUUUCGUUUCGAGAAGGCGUGUUUU [JR_E5_Sub075] (puzzle: Exclusion 5) | – | 54.1 nM | – | – | – | – |
| AUAUUAAUAGUAAGGAUAUGCGUGUGUGUAGUUAUGCAGAAGGUACAUGAGGAUCACCCAUGUAUUAAUGUGUG [LRO-BmodExc4-08-Oppy's Opus] (Eterna round: R97, puzzle: Brourd's mod of Exclusion 4) | – | – | – | 18 nM | – | 19.7 nM |
| AGUAGUUACGCAGGAUAUGAGGAUCACCCAUAGAAGGAUAUCGAAAGAGAAGGUCUGAGGAUUACCCAGAAGGGCGUGACUACA [pwkr exNG2 2xF5 2xFMN.5] (Eterna round: R96, puzzle: Exclusion NG 2) | – | – | – | 647 nM | 113 nM | 136 nM |
| AACCUGAGGCAAAGCUUUAGGUGUACAUGAGGAUCACCCAUGUAGGAUAUGGUAGGCAAAGCUUACCAGAAGGACAUUGGCGUA [Mat - Exclusion NG 3 - Mod of JL - D41] (Eterna round: R96, puzzle: Exclusion NG 3) | – | – | – | 418 nM | 93.8 nM | 119 nM |
| CGGUGUAGAGGAUAUACGUGGAUGUAAAUUCAUGAUAUUUUACAUGAGGAUCACCCAUGUAGAAGGCUAUAGCG [JR_Ex2_Sub078] (Eterna round: R97, puzzle: Exclusion 2) | – | – | – | 74.2 nM | – | 229 nM |
| CAGUACUGAGGAUAUACAUGAGGAUCACCCAUGUGUGUGAGAAUUGUAUGAAUGUUAUGUAGAAGGCGGUGCUG [JR_Ex3_Sub033] (Eterna round: R97, puzzle: Exclusion 3) | – | – | – | 143 nM | – | 765 nM |
| AAACACACAGGAUAUGAGAGGCGGUACAUGAGGAUCACCCAUGUCCUCGGAAAUCAGCGUUCAGAAGGGUGCGGUG [Eternabot (Original) Solution 36] (Eterna round: R97, puzzle: Exclusion 5) | – | – | – | 457 nM | – | 171 nM |
| UUAAUGGCUGUGAGGAUAUCGGAUAGAUAGAUAUUCGAGAAGGCACAUGAGGAUCACCCAUGUGUGAUUAGAGA [Brourd's EX4 #63] (Eterna round: R97, puzzle: Brourd's mod of Exclusion 4) | – | – | – | 130 nM | – | 26 nM |
| GCACGAAGUGUAGGAUAUCUGUGCGAUUAGCUCAGAGAAGGACACAUGAGGAUCACCCAUGUGUUCCAAUACUCAAAUACGUGC [Eli exng1 - 0622] (Eterna round: R96, puzzle: Exclusion NG 1) | – | – | – | 10.1 nM | 9.09 nM | 12.2 nM |
| AGUACUAACACGAUAGUGUUAGUACAAUAAGCUUGUGAAACAUGAGGAUCACCCAUGUCCUCAUAAGCUCGUCUUAU [salish99_TOv2_r3_030] (Eterna round: R96, puzzle: Sensor v3, turn-off variant 2) | – | – | – | 15.1 nM | 507 nM | 17.3 nM |
| CGUGACUGAGGAUAUCUAUGAUAUCACAUGAGGAUCACCCAUGUCCAGCGAAAGCUGGAGGGAGAAGGCAGUCACG [Fiskers Ex 5 - 30] (puzzle: Exclusion 5) | 61.5 nM | 220 nM | 185 nM | – | – | – |
| UUUAAUUUUUUUUUUUUACAAGCUUUUUGCUCGUCUUAUACAUGAGGAUCACCCAUGUGAAUGGGAGAUAAAUUAUC [JMF 18] (puzzle: Sensor v3, turn-off variant 2) | 356 nM | 508 nM | 456 nM | – | – | – |
| UAUGUUAGCACAGGAUAUUGUUAUUAUUUAAUUCAAGAAGGGUGUACAUGAGGAUCACCCAUGUUAUGGUUUUAUCUUUUACAA [JR_ExcNG1_Sub013] (Eterna round: R96, puzzle: Exclusion NG 1) | – | – | – | – | 957 nM | – |
| AUCUUGUAAGGAUAUCUGACAAGUGACGAAAGUCACAGUUCAGAGAAGGUACAUGAGGAUCACCCAUGUAGAAC [Ex4-3: 41] (puzzle: Exclusion 4) | – | 15.9 nM | – | – | – | – |
| UGAGUGCUGCGAGGAUAUACAUGAGGAUCACCCAUGUUUACCUGUGAGGCUUUGCCUCACAGGUUGUAGAAGGCGCAGUACUCU [JL ENG2 1.15] (Eterna round: R96, puzzle: Exclusion NG 2) | – | – | – | 10.2 nM | 9.11 nM | 12.4 nM |
| UAUUAGUAAGGAUAUGAGGCGUAGUACGAAAGUACUACGUCUCAGAAGGUACAUGAGGAUCACCCAUGUUCAUU [Mod of Fisker 4 - Jieux - Exclusion 4] (Eterna round: R97, puzzle: Exclusion 4) | – | – | – | 19.9 nM | – | 17.8 nM |
